This is an account of results in IntAct's records for PubMed 23594738.

B1: Protein lin-28 homolog A (Mus musculus), Q8K3Y3 (parent)
chain: MGSVSNQQFAGGCAKAAEKAPEEAPPDAARAADEPQLLHGAGICKWFNVRMGFGFLSMTARAGVALDPPVDVFVHQSKLHMEGFRSLKEGEAVEFTFKKSAKGLESIRVTGPGGVFCIGSERRPKGKNMQKRRSKGDRCYNCGGLDHHAKECKLPPQPKKCHFCQSINHMVASCPLKAQQGPSSQGKPAYFREEEEEIHSPALLPEAQN
partner: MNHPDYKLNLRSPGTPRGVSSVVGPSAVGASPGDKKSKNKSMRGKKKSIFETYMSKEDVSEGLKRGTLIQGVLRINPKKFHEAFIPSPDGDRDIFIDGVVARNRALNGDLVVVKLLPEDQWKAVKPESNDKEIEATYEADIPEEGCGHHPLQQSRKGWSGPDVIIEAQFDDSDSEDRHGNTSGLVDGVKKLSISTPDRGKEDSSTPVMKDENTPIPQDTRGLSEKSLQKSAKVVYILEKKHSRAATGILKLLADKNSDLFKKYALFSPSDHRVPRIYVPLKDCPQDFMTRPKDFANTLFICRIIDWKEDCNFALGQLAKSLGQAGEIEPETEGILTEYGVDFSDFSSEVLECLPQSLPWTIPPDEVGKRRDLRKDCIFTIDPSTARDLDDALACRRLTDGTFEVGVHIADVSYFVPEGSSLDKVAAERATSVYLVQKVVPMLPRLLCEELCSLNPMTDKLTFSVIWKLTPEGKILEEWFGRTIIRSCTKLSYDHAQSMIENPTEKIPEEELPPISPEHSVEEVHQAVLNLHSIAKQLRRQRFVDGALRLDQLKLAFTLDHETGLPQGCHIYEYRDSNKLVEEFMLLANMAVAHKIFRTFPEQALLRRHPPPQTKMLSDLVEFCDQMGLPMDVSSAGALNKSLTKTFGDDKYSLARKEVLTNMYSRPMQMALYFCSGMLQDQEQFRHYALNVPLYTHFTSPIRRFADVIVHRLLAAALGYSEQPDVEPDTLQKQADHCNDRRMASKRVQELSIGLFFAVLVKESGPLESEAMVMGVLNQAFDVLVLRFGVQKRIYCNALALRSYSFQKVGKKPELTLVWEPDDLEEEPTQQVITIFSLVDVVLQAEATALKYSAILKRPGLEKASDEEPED

The test covers variants of B1. Conditions: with di3l2_mouse Dis3l2, Q8CI75.
As to MGSVSNQQFAGGCAKAAEKAPEEAPPDAARAADEPQLLHGAGICKAFNVRMGFGFLSMTARAGVALDPPVDVFVHQSKLHMEGFRSLKEGEAVEFTFKKSAKGLESIRVTGPGGVFCIGSERRPKGKNMQKRRSKGDRCYNCGGLDHHAKECKLPPQPKKCHFCQSINHMVASCPLKAQQGPSSQGKPAYFREEEEEIHSPALLPEAQN [W46A], the “effect of a mutation on the interaction” value is listed as “decreasing interaction strength”.
